Measurements: article PMC2566858 (Nucleic Acids Research, 2008)

How the values were obtained:
Test in all cases: fluorescence anisotropy
[1] = molecular target: T1, rGyr_fl Y851F (full-length reverse gyrase) (Thermotoga maritima, UniProt O51934 1-1104, Y851F)
T1 sequence: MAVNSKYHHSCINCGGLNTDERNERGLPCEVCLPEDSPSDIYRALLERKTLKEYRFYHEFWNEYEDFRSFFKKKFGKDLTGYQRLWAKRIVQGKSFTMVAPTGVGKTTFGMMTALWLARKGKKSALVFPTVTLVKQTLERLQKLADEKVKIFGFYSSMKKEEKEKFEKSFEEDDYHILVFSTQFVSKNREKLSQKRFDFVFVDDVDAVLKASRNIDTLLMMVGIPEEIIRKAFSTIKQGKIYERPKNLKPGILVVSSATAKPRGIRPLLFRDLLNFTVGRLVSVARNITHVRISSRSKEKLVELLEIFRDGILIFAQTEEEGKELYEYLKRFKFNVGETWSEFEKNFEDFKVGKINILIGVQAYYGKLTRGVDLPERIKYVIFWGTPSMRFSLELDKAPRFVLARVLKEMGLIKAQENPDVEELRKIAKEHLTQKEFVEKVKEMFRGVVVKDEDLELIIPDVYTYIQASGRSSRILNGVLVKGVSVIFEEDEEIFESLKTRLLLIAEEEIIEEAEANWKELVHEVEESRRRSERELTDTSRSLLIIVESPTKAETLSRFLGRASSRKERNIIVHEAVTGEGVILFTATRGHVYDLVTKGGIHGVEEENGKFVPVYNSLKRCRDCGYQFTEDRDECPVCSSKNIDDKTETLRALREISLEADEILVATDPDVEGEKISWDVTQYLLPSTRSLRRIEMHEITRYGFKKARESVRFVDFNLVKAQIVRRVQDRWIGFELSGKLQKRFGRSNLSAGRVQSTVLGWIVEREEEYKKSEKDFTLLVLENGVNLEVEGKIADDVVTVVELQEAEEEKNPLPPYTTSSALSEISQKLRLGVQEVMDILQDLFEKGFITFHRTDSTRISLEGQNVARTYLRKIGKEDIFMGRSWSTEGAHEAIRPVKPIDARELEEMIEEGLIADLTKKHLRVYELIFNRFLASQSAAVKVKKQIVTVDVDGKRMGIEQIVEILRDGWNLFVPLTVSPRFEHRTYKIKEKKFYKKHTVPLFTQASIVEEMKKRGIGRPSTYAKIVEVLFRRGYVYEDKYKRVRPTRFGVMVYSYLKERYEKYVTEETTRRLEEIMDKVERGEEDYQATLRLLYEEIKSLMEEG

[2] = molecular target: T2, rGyr_hel (reverse gyrase helicase-like domain) (Thermotoga maritima, UniProt O51934 59-541)
T2 sequence: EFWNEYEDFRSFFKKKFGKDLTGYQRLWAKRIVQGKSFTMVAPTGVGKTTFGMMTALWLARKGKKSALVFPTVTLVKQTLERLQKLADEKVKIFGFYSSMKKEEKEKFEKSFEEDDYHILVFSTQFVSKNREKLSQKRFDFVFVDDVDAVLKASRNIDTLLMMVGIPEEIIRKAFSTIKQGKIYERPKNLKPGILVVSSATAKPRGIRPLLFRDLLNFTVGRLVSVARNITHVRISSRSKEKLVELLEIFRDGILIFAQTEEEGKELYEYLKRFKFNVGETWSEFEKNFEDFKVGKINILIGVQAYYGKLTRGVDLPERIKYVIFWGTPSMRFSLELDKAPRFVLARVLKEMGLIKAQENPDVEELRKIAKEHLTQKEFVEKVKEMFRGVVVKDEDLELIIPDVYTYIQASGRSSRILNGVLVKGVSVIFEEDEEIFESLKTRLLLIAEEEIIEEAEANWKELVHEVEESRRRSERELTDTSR

rGyr_fl K106Q/Y851F = molecular target: T3, rGyr_fl K106Q/Y851F (Thermotoga maritima, UniProt O51934 1-1104, K106Q;Y851F)
T3 sequence: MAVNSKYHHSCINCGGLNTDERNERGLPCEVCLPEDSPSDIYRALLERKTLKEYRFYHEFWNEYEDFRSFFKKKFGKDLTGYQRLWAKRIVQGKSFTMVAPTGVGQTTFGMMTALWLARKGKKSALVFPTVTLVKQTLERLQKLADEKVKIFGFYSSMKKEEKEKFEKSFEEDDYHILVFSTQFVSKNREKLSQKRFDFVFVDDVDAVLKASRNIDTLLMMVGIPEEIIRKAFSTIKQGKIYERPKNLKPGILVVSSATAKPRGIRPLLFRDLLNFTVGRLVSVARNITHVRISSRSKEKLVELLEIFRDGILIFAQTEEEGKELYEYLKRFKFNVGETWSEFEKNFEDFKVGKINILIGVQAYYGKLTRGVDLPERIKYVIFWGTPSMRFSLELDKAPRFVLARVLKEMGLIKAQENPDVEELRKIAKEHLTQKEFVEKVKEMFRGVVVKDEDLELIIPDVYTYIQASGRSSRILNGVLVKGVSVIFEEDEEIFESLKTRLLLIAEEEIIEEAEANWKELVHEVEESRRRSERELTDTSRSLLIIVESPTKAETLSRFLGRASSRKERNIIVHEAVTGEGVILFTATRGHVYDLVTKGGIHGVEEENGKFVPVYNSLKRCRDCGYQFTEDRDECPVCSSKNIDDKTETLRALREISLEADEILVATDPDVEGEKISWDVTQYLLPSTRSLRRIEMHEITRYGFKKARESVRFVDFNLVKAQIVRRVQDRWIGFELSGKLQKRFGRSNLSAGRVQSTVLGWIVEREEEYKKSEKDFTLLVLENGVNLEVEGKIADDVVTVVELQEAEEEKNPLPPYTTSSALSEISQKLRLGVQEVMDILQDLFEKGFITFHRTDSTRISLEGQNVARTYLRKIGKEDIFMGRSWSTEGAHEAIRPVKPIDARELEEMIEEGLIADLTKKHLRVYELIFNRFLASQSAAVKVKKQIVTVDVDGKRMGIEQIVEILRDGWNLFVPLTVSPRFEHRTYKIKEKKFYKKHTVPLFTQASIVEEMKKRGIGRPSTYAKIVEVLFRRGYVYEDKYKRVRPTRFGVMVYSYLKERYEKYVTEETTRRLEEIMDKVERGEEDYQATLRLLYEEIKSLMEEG

B1: 60-base ssDNA (ssDNA)
DNA: AAGCCAAGCTTCTAGAGTCAGCCCGTGATATTCATTACTTCTTATCCTAGGATCCCCGTT
B1 was tested, and the Kd [1] was 46 ± 8 nM and the Kd [2] was 330 ± 10 nM.

B2: 60 bp dsDNA (dsDNA)
DNA 1: AAGCCAAGCTTCTAGAGTCAGCCCGTGATATTCATTACTTCTTATCCTAGGATCCCCGTT
DNA 2: AACGGGGATCCTAGGATAAGAAGTAATGAATATCACGGGCTGACTCTAGAAGCTTGGCTT
Work on B2 yielded a Kd (rGyr_fl K106Q/Y851F) of 460 ± 70 nM.
